Assay results as given in article PMC10681739, “High-throughput data and modeling reveal insights into the mechanisms of cooperative DNA-binding by transcription factor proteins”.

B1: Table S3 C row 78 (dsDNA)
DNA 1: ATTCCAATGGCAGGCAGGAAATCTTGTAGTAGGTGA
DNA 2: TCACCTACTACAAGATTTCCTGCCTGCCATTGGAAT
B2: Table S3 C row 45 (dsDNA)
DNA 1: CCGCTGGGGCAGGAGTTTCCGGCGGACTCGGCTAGG
DNA 2: CCTAGCCGAGTCCGCCGGAAACTCCTGCCCCAGCGG
B3: Table S3 C row 139 (dsDNA)
DNA 1: TAAATGGAAAGCATACATCCTGTTTTTTTGCTGTAG
DNA 2: CTACAGCAAAAAAACAGGATGTATGCTTTCCATTTA
B4: Table S3 C row 55 (dsDNA)
DNA 1: GGGTTCATGTTTAGCAGGAAGTTGAAATGACTCACC
DNA 2: GGTGAGTCATTTCAACTTCCTGCTAAACATGAACCC
B5: Table S3 C row 18 (dsDNA)
DNA 1: GCTGTGATTGCCTCACTTCCTGTGTCATGTGACGCT
DNA 2: AGCGTCACATGACACAGGAAGTGAGGCAATCACAGC
B6: Table S3 C row 51 (dsDNA)
DNA 1: CACAGAGACACCAACAGGAAGAGACCAGAGAGCCAA
DNA 2: TTGGCTCTCTGGTCTCTTCCTGTTGGTGTCTCTGTG
B7: Table S3 C row 34 (dsDNA)
DNA 1: TTACGGCAAGCCTCACTTCCGGTCTGAACATTACGG
DNA 2: CCGTAATGTTCAGACCGGAAGTGAGGCTTGCCGTAA
B8: Table S3 C row 67 (dsDNA)
DNA 1: AAAAAAAAAAAAAAAGTTCCGGCCGGGCTGCGCCTC
DNA 2: GAGGCGCAGCCCGGCCGGAACTTTTTTTTTTTTTTT
B9: Table S3 C row 2 (dsDNA)
DNA 1: TGGACCTAGGGCAGACGGAAGTTTTGGGAGGGCCGG
DNA 2: CCGGCCCTCCCAAAACTTCCGTCTGCCCTAGGTCCA
B10: Table S3 C row 85 (dsDNA)
DNA 1: CAGTCTGGCCCTCCACTTCCTGTTTTTATAAATGAA
DNA 2: TTCATTTATAAAAACAGGAAGTGGAGGGCCAGACTG
B11: Table S3 C row 196 (dsDNA)
DNA 1: GGGGTTCAGTGCCTCTTTCCGTTGGAGAGAACCTCT
DNA 2: AGAGGTTCTCTCCAACGGAAAGAGGCACTGAACCCC
B12: Table S3 C row 168 (dsDNA)
DNA 1: CAGAAGTCCCGACCCCATCCTGCCACGCCTCAGCGT
DNA 2: ACGCTGAGGCGTGGCAGGATGGGGTCGGGACTTCTG
B13: Table S3 C row 19 (dsDNA)
DNA 1: TCCAGACCTCCCCGTCTTCCGGCTGCCCTGAACGTC
DNA 2: GACGTTCAGGGCAGCCGGAAGACGGGGAGGTCTGGA
B14: Table S3 C row 63 (dsDNA)
DNA 1: GCACTGAGGCTGACCCGGAAGTTTAAATTACGCTCC
DNA 2: GGAGCGTAATTTAAACTTCCGGGTCAGCCTCAGTGC
B15: Table S3 C row 134 (dsDNA)
DNA 1: GGGCAGAAGCACACAAGGAAGTGTTTCTGGGACAGA
DNA 2: TCTGTCCCAGAAACACTTCCTTGTGTGCTTCTGCCC
B16: Table S3 C row 171 (dsDNA)
DNA 1: AGGAGACAAGCGCCACTTCCGGCAGCGAAGTCACTT
DNA 2: AAGTGACTTCGCTGCCGGAAGTGGCGCTTGTCTCCT
B17: Table S3 C row 199 (dsDNA)
DNA 1: TATCTGAGGAGTGGCAGGAAGTCTGGGGTGACTTTT
DNA 2: AAAAGTCACCCCAGACTTCCTGCCACTCCTCAGATA
B18: Table S3 C row 30 (dsDNA)
DNA 1: ACCGACCTGCCTCGCCGGAACTCCTCGCGCATCGCC
DNA 2: GGCGATGCGCGAGGAGTTCCGGCGAGGCAGGTCGGT
B19: Table S3 C row 64 (dsDNA)
DNA 1: CTCCATCACTGTCGGAGGAAGTGGCATGCAGAGTGG
DNA 2: CCACTCTGCATGCCACTTCCTCCGACAGTGATGGAG
B20: Table S3 C row 16 (dsDNA)
DNA 1: GCTAGATGAAGCCCCTTTCCTGTTGCTGCCTACATT
DNA 2: AATGTAGGCAGCAACAGGAAAGGGGCTTCATCTAGC
B21: Table S3 C row 42 (dsDNA)
DNA 1: CTTTGGCAGCAAGAACATCCGTTCTCTGTTCTTTGC
DNA 2: GCAAAGAACAGAGAACGGATGTTCTTGCTGCCAAAG
B22: Table S3 C row 7 (dsDNA)
DNA 1: ACCCCGACGCAGCCTGGGAAGTGTAGTCCTCTCTGC
DNA 2: GCAGAGAGGACTACACTTCCCAGGCTGCGTCGGGGT
B23: Table S3 C row 189 (dsDNA)
DNA 1: TCGCTGATGGCGTCATTTCCGTGAGTCATCTGAGGG
DNA 2: CCCTCAGATGACTCACGGAAATGACGCCATCAGCGA
B24: Table S3 C row 175 (dsDNA)
DNA 1: CTGCGCGGCCCACCCCGGATGTCAGCCCCACGCGCC
DNA 2: GGCGCGTGGGGCTGACATCCGGGGTGGGCCGCGCAG
B25: Table S3 C row 186 (dsDNA)
DNA 1: GCTTTCTGGACTACACTTCCCAGAAGCCTCTAGGCC
DNA 2: GGCCTAGAGGCTTCTGGGAAGTGTAGTCCAGAAAGC
B26: Table S3 C row 142 (dsDNA)
DNA 1: GCCCCTGCCCCAGAGAGGAAGTTCGGCCTCATCGAG
DNA 2: CTCGATGAGGCCGAACTTCCTCTCTGGGGCAGGGGC
B27: Table S3 C row 149 (dsDNA)
DNA 1: CTCAAGGAGGTGGGACTTCCTGCTAGGTGGGCCGTG
DNA 2: CACGGCCCACCTAGCAGGAAGTCCCACCTCCTTGAG
B28: Table S3 C row 68 (dsDNA)
DNA 1: CCCTATTCGCAGAGGAGGAAGTGGAGGCTCTCCAGG
DNA 2: CCTGGAGAGCCTCCACTTCCTCCTCTGCGAATAGGG
B29: Table S3 C row 183 (dsDNA)
DNA 1: CGCCCCAATGTTCGGCGGAAGGGAGGGAGGGTCTCC
DNA 2: GGAGACCCTCCCTCCCTTCCGCCGAACATTGGGGCG
B30: Table S3 C row 115 (dsDNA)
DNA 1: GCCACCAGAGGGCGCCGGAAGTCCTGACCCATTGTC
DNA 2: GACAATGGGTCAGGACTTCCGGCGCCCTCTGGTGGC
B31: Table S3 C row 60 (dsDNA)
DNA 1: GGGGCTACTCGCAACAGGAAGTTCGGCCCTTAAAAA
DNA 2: TTTTTAAGGGCCGAACTTCCTGTTGCGAGTAGCCCC
B32: Table S3 C row 88 (dsDNA)
DNA 1: TCTCACGTAGACGCGCGGAAACACTAACGAGTTGAA
DNA 2: TTCAACTCGTTAGTGTTTCCGCGCGTCTACGTGAGA

Biological target: RUNX1 (Homo sapiens, UniProt Q01196)
Test: gcPBM; 2 nM RUNX1
Conditions: tags: N-terminal GST (pDEST15), kept (PMC6008103); label: surface-attached array probe

RUNX1, sequence (Q01196 whole entry): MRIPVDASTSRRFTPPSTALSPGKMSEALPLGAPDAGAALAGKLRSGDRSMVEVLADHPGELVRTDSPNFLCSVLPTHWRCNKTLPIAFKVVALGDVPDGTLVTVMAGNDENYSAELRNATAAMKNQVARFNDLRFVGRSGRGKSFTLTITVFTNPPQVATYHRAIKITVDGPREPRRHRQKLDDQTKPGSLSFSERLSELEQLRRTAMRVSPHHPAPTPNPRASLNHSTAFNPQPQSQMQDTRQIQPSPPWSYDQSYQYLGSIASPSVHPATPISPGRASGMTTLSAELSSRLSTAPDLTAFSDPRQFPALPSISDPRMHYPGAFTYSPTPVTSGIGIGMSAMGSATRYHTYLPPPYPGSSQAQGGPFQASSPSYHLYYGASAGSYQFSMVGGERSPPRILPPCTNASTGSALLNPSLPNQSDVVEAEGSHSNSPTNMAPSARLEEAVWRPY

Binder | binding signal
B1 | 802 PBM fluorescence, median of replicate spots
B2 | 802 PBM fluorescence, median of replicate spots
B3 | 802 PBM fluorescence, median of replicate spots
B4 | 803 PBM fluorescence, median of replicate spots
B5 | 805 PBM fluorescence, median of replicate spots
B6 | 807 PBM fluorescence, median of replicate spots
B7 | 808 PBM fluorescence, median of replicate spots
B8 | 810 PBM fluorescence, median of replicate spots
B9 | 810 PBM fluorescence, median of replicate spots
B10 | 810 PBM fluorescence, median of replicate spots
B11 | 810 PBM fluorescence, median of replicate spots
B12 | 810 PBM fluorescence, median of replicate spots
B13 | 812 PBM fluorescence, median of replicate spots
B14 | 812 PBM fluorescence, median of replicate spots
B15 | 813 PBM fluorescence, median of replicate spots
B16 | 814 PBM fluorescence, median of replicate spots

Binder | binding signal
B17 | 815 PBM fluorescence, median of replicate spots
B18 | 816 PBM fluorescence, median of replicate spots
B19 | 818 PBM fluorescence, median of replicate spots
B20 | 818 PBM fluorescence, median of replicate spots
B21 | 821 PBM fluorescence, median of replicate spots
B22 | 822 PBM fluorescence, median of replicate spots
B23 | 823 PBM fluorescence, median of replicate spots
B24 | 823 PBM fluorescence, median of replicate spots
B25 | 826 PBM fluorescence, median of replicate spots
B26 | 827 PBM fluorescence, median of replicate spots
B27 | 829 PBM fluorescence, median of replicate spots
B28 | 829 PBM fluorescence, median of replicate spots
B29 | 835 PBM fluorescence, median of replicate spots
B30 | 838 PBM fluorescence, median of replicate spots
B31 | 839 PBM fluorescence, median of replicate spots
B32 | 840 PBM fluorescence, median of replicate spots
